Among the data in the supplement of paper PMC10567573 are protein stability index values, retold here.

The data set can be described thus: protein stability index of a GFP-peptide fusion (GPS, HEK-293T) (PSI 1-6); higher = more stable. The following applies: c terminus: a fixed tail appended.

± gives the standard deviation.
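Also: 24-mer peptide tiles fused after GFP, lentivirally expressed, FACS-sorted into six equal bins by GFP/DsRed ratio, decoded by Illumina sequencing, PSI is the read-weighted mean bin number.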

On to HFSRLCGPESPPPPYSRLSPRDEY [SMAD6], for which the protein stability index amounted to 3.42 ± 0.07 (treatment: DMSO) and 3.56 ± 0.17 (treatment: MLN4924 1 uM, 8 h).

In the case of GTLIGVGQSVTAVGRIIAPLLSGV [MFSD9], the protein stability index by setting is: (treatment: DMSO) 2.03 ± 0.17; (treatment: MLN4924 1 uM, 8 h) 2.2 ± 0.29.

As for HLEEPGETQNAFLNERKQASAIKK [CHGB], the protein stability index is, setting by setting: (treatment: DMSO) 5.11 ± 0.14; (treatment: MLN4924 1 uM, 8 h) 5.2 ± 0.28.

In the case of WGVFYYFVSALGITAGAHRLWSHR [SCD], the protein stability index by setting is: (treatment: DMSO) 3.38 ± 0.79; (treatment: MLN4924 1 uM, 8 h) 2.63 ± 0.62.

Turning to FYRLYQDLETHRLPCTSRCPRPCR [SCNN1D], the protein stability index by setting is: (treatment: DMSO) 2.8 ± 0.26; (treatment: MLN4924 1 uM, 8 h) 2.99 ± 0.35.

Take TLRDHFKGISSHSRSSLMPLRNDV [SLC2A12]: the protein stability index runs as follows: (treatment: DMSO) 2.96 ± 0.15; (treatment: MLN4924 1 uM, 8 h) 3.03 ± 0.37.

Take TTNVKSASRQKTSLGIELHCNVSN [ZNF396]: the protein stability index reads like this: (treatment: DMSO) 3.39 ± 0.29; (treatment: MLN4924 1 uM, 8 h) 3.82 ± 0.31.

In turn, ERVDGRRLVYKFGKNSSGWKEEEV [ELF3] displayed a protein stability index (treatment: DMSO) of 4.11 ± 0.37 and a protein stability index (treatment: MLN4924 1 uM, 8 h) of 4.39 ± 0.15.

Consider DVLSCEYYSPILDQWTPIAAMLRG [KLHL13], for which the protein stability index runs as follows: (treatment: DMSO) 2.2 ± 0.46; (treatment: MLN4924 1 uM, 8 h) 2.36 ± 0.23.

As to DETIGFEDILNDPSQSEVMGEPHL [POMP], the protein stability index by setting is: (treatment: DMSO) 5.5 ± 0.15; (treatment: MLN4924 1 uM, 8 h) 5.46 ± 0.086.

For the sequence LFLGRILSLTSSASRLLTTALTSF [FANCE], the protein stability index (treatment: DMSO) was determined as 2.44 ± 0.1 and the protein stability index (treatment: MLN4924 1 uM, 8 h) was 2.27 ± 0.19.

As to QLEKPPEKEEDHAPEFIKVRENLR [FAM107A], the protein stability index (treatment: DMSO) turned out to be 5.29 ± 0.23 and the protein stability index (treatment: MLN4924 1 uM, 8 h) was determined as 5.32 ± 0.16.

As for HTPGTPKSAILVPSEKKVAIIRTP [MAP2], the protein stability index came to 3.96 ± 0.057 (treatment: DMSO) and 4.02 ± 0.2 (treatment: MLN4924 1 uM, 8 h).

In the case of MQEFFGLKVTGKPDAETLKVMKQP [MMP1], the protein stability index reads like this: (treatment: DMSO) 3.47 ± 0.15; (treatment: MLN4924 1 uM, 8 h) 3.53 ± 0.34.

In the case of SAFSSRGSLSLSFEREPSTSDLGT [RIPK4], the protein stability index was found to be 4.01 ± 0.14 (treatment: DMSO) and 4.13 ± 0.14 (treatment: MLN4924 1 uM, 8 h).

As to EARSLEHTLPVNRETLKRKVSGNR [ESR2], the protein stability index is, setting by setting: (treatment: DMSO) 4.95 ± 0.27; (treatment: MLN4924 1 uM, 8 h) 5.16 ± 0.2.

In the case of MRDLYMKNGQGFALVYSITAQSTF [RAP1B], the protein stability index (treatment: DMSO) was found to be 2.85 ± 0.79 and the protein stability index (treatment: MLN4924 1 uM, 8 h) was 2.78 ± 0.6.

Turning to FSPIAIDGMSGLAGVGLSGGAAGA [ELAVL3], the protein stability index amounted to 3.04 ± 0.26 (treatment: DMSO) and 3.2 ± 0.26 (treatment: MLN4924 1 uM, 8 h).

As for GNAKGKILVLKTDSQDLVASFRVT [RBBP5], the protein stability index is, setting by setting: (treatment: DMSO) 2.17 ± 0.19; (treatment: MLN4924 1 uM, 8 h) 2.11 ± 0.28.

On to VRCEALTGELETLKERCAQDACQA [CCDC89], for which the protein stability index runs as follows: (treatment: DMSO) 4.43 ± 0.39; (treatment: MLN4924 1 uM, 8 h) 4.25 ± 0.18.

PIFVNSPTLDAPGGRALVVRKVPP [SMAD6]: the protein stability index is, setting by setting: (treatment: DMSO) 3.23 ± 0.059; (treatment: MLN4924 1 uM, 8 h) 3.34 ± 0.29.

EQTYHAKLENARLSSEMNTSTVNS [LMNB1] returned a protein stability index (treatment: DMSO) of 4.88 ± 0.14 and a protein stability index (treatment: MLN4924 1 uM, 8 h) of 5.03 ± 0.19.

DDGSQDPEVLDRESRDRPSCAPSA [PWWP2B]: the protein stability index was 5.43 ± 0.17 (treatment: DMSO) and 5.21 ± 0.13 (treatment: MLN4924 1 uM, 8 h).

Turning to LGDLLMPTMAPAGQPAPVSMVPPS [SNAP91], the protein stability index is, setting by setting: (treatment: DMSO) 3.26 ± 0.2; (treatment: MLN4924 1 uM, 8 h) 3.51 ± 0.18.

For ARQLQLSDPQTVAGAFGYFQQDTK [LPCAT4], the protein stability index (treatment: DMSO) was 3.82 ± 0.41 and the protein stability index (treatment: MLN4924 1 uM, 8 h) amounted to 3.9 ± 0.16.

Turning to GLQSPGTLQPPEFLYSHGVPRTLS [TBX5], the protein stability index was 3.32 ± 0.27 (treatment: DMSO) and 3.49 ± 0.36 (treatment: MLN4924 1 uM, 8 h).

Regarding LSLHVKSLGASPTVAGIVGSSYGI [MFSD9], the protein stability index is, setting by setting: (treatment: DMSO) 2.71 ± 0.93; (treatment: MLN4924 1 uM, 8 h) 2.42 ± 0.38.

For TTISYLPHAPPFAGGHPAQLGLGR [JUNB], the protein stability index runs as follows: (treatment: DMSO) 2.72 ± 0.2; (treatment: MLN4924 1 uM, 8 h) 2.61 ± 0.26.

EVIPYTPAMQRYVKRLHEVGRTEP [HMOX1] had a protein stability index (treatment: DMSO) of 3.18 ± 0.21 and a protein stability index (treatment: MLN4924 1 uM, 8 h) of 3.41 ± 0.25.

Take ASRVSKVNDKRRKKSGEKEQHISK [KMT2E]: the protein stability index worked out at 4.69 ± 0.39 (treatment: DMSO) and 4.45 ± 0.38 (treatment: MLN4924 1 uM, 8 h).

ASVSDEELKRRVAEELALEQAKKE [CHCHD3]: the protein stability index worked out at 5.76 ± 0.25 (treatment: DMSO) and 5.45 ± 0.49 (treatment: MLN4924 1 uM, 8 h).

For the sequence DLKTLSDDIKESLESEGKNSKKEE [ATE1], the protein stability index stood at 5.31 ± 0.54 (treatment: DMSO) and 5.32 ± 0.31 (treatment: MLN4924 1 uM, 8 h).

In the case of QTFLDERTPRLMPDKESMYYPRVQ [GDAP1], the protein stability index by setting is: (treatment: DMSO) 3.43 ± 0.32; (treatment: MLN4924 1 uM, 8 h) 3.41 ± 0.31.

Sequence SEGACEKEKQSRDFQGRILSVDPE [RHOBTB1] yielded a protein stability index (treatment: DMSO) of 5.22 ± 0.42 and a protein stability index (treatment: MLN4924 1 uM, 8 h) of 5.12 ± 0.35.

ERNRMHGLNDALDNLRKVVPCYSK [NEUROD6]: the protein stability index was 2.75 ± 0.47 (treatment: DMSO) and 3.02 ± 0.32 (treatment: MLN4924 1 uM, 8 h).

Turning to GRECQPRWETSSWSECSRTCGEGY [ADAMTSL2], the protein stability index is, setting by setting: (treatment: DMSO) 3.78 ± 0.15; (treatment: MLN4924 1 uM, 8 h) 3.49 ± 0.092.
